Reference: US20160108097A1

Assays:
Experiment in all cases: cell-based or functional assay
[1] = target: HIV-1 subtype C envelope DU151.2 (HIV-1 subtype C)
[2] = target: HIV-1 subtype B envelope QH0692.42 (HIV-1 subtype B)
[3] = target: HIV-1 subtype A envelope Q168.a2 (HIV-1 subtype A)
[4] = target: HIV-1 subtype B envelope PVO.4 (HIV-1 subtype B)
[5] = target: GRFT-resistant envelope Du179 GRFT c17 (R)
[6] = target: Env of HIV-1RF virus (HIV-1 RF)
[7] = target: HIV-1 subtype C envelope Du179.14 (HIV-1 subtype C)
[8] = target: HIV-1 subtype B envelope CAAN5342.A2 (HIV-1 subtype B)
[9] = target: HIV-1 subtype A envelope Q23.17 (HIV-1 subtype A)
[10] = target: HIV-1 subtype B envelope JR-FL (HIV-1 subtype B)
[11] = target: GRFT-resistant envelope Du156R18 (R)
[12] = target: HIV-1 subtype C envelope COT6.15 (HIV-1 subtype C)
[13] = target: HIV-1 subtype C envelope CAP206.8 (HIV-1 subtype C)
[14] = target: HIV-1 subtype C envelope Du156.12 (HIV-1 subtype C)

Sequence of griffithsin (GRFT), native domain-swapped dimer (P84801 whole entry X31A, the tested form may be a part): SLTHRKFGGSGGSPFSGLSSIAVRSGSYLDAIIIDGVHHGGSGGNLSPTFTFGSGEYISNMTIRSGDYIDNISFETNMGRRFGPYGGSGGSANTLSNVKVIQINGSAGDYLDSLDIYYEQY

“griffithsin (GRFT), native domain-swapped dimer (from UniProt P84801 1-121)” was tested, and the IC50 (pseudovirus neutralization, JC53bl-13 cells) [1] was 1.49 nM, the IC50 (pseudovirus neutralization, JC53bl-13 cells) [2] was 0.0473 nM and the IC50 (pseudovirus neutralization, JC53bl-13 cells) [3] was 3.8 nM. It also gave an IC50 (pseudovirus neutralization, JC53bl-13 cells) [4] of 0.037 nM, a fold reduction in activity between the WT (Du179.14) and R viruses [5] of over 82 fold and an Anti-HIV EC50 (XTT cytopathicity assay, HIV-1RF, CEM-SS cells) [6] of 0.0138 nM. The IC50 (pseudovirus neutralization, JC53bl-13 cells) [7] was 0.606 nM, the IC50 (pseudovirus neutralization, JC53bl-13 cells) [8] was 7.34 nM and the IC50 (pseudovirus neutralization, JC53bl-13 cells) [9] was 1.19 nM. The IC50 (pseudovirus neutralization, JC53bl-13 cells) [10] was 0.922 nM, the IC50 (pseudovirus neutralization, JC53bl-13 cells) [11] was 9.14 nM and the fold reduction in activity between the WT (Du156.12) and R viruses [11] was 282 fold. It also gave an IC50 (pseudovirus neutralization, JC53bl-13 cells) [12] of 0.734 nM, an IC50 (pseudovirus neutralization, JC53bl-13 cells) [13] of 2.14 nM and an IC50 (pseudovirus neutralization, JC53bl-13 cells) [14] of 0.0324 nM.
